# Assay results reported in patent US20260077028A1.
# Where “and” joins values, the source holds several entries; their conditions need not be identical. Identical values can stand only once.
# T1: human DEspR (dual endothelin/VEGF signal peptide receptor) (human) (UniProt B0L3A2)
# T1 sequence: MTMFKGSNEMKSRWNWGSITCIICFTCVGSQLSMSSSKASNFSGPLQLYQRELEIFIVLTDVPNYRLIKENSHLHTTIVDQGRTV
# B1: 6g8 mumab, murine anti-DEspR monoclonal antibody (pan-species reactive anti-Human/Rat/Monkey DEspR mAb), precursor of hu-6g8 (antibody, from a related filing, V domains shown)
# VH: EVQLQESGGGLVQPGGSLKLSCAASGFDFSRYWMSWVRQAPGKGLEWIGEINPDSSTINYTPSLKDKFIISRDTAKKTLYLQMSKVRSEDTALYYCARHGRGMDYWSQGTSVTVSS
# VL: DIVLTQTNQIMSASVGDRVSVTCKASQNVDSNVAWYQQKPGHSPKALIYSASYRYSRVPDRITGSGSGTDFTLTITNVQSKDLADYFCQQYHSYPLLAFGAGTKLELKR
# Experiments:
# [1] = biological target: DEspR on activated neutrophils (species of the neutrophils not stated for FIG. 6 / FIG. 17C); experiment: cell-based or functional assay
# [2] = biological target: T1, human DEspR (dual endothelin/VEGF signal peptide receptor) (human); experiment: binding to DEspR on intact human cells, triplicate
binder,measurement,setting,value
B1,inhibition of neutrophil (PMN) survival (IC50),[1],> 198 nM
same,"inhibition of survival (IC50), live cells counted by Trypan blue dye exclusion",[1],> 200 nM and > 30 µg/mL
same,EC50,[2],178 nM
